Measured values as given in article PMC9482650, “Quantitative fragmentomics allow affinity mapping of interactomes” (Nature Communications, 2022).

T1: PDZRN3_1, Q9UPQ7
T1 sequence (Q9UPQ7 244-349, limits assumed, looked up): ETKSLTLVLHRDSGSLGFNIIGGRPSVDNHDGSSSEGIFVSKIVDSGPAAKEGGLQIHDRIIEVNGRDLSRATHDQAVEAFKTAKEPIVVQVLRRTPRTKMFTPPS

T2: MPP7, Q5T2T1
T2 sequence (Q5T2T1 134-230, limits assumed, looked up): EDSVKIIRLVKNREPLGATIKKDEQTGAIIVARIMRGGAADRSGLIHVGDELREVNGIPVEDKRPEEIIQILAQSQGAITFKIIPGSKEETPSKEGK

T3: RHPN1, Q8TCX5
T3 sequence (Q8TCX5 508-602, limits assumed, looked up): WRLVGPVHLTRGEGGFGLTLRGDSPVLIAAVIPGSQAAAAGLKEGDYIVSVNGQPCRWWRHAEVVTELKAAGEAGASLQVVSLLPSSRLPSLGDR

T4: DVL3, Q92997
T4 sequence (Q92997 244-331, limits assumed, looked up): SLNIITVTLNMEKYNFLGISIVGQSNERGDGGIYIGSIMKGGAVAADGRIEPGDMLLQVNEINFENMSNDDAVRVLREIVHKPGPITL

T5: SNTB1, Q13884
T5 sequence (Q13884 107-205, limits assumed, looked up): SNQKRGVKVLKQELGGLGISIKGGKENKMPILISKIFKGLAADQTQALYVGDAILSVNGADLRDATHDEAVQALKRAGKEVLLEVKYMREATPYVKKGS

T6: MPDZ_5, O75970
T6 sequence (O75970 695-796, limits assumed, looked up): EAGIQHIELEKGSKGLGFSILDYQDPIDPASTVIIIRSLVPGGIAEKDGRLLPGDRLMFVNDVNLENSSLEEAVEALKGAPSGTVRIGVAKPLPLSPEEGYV

T7: DLG3_3, Q92796
T7 sequence (Q92796 374-475, limits assumed, looked up): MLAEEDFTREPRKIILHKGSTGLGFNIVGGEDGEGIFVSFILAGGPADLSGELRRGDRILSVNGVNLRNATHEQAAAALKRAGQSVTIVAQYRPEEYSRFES

T8: DFNB31_1, Q9P202
T8 sequence (Q9P202 135-233, limits assumed, looked up): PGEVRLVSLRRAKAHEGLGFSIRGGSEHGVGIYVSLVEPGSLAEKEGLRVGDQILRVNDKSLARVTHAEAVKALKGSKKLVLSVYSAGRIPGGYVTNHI

T9: APBA3_1, O96018
T9 sequence (O96018 389-490, limits assumed, looked up): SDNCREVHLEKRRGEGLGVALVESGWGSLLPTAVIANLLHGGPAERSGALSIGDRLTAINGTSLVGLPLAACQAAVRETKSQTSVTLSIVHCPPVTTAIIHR

T10: MPDZ_10, O75970
T10 sequence (O75970 1624-1722, limits assumed, looked up): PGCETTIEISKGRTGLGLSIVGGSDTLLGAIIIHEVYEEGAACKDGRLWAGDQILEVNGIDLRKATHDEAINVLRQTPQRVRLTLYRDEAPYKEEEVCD

T11: LRRC7, Q96NW7
T11 sequence (Q96NW7 1440-1537, limits assumed, looked up): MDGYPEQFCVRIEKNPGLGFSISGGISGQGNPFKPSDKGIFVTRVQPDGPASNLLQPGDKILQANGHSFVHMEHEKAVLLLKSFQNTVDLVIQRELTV

B1: PDGFRB, P09619 (peptide)
chain: PRAEAEDSFL
B2: GOT1L1, Q8NHS2 (peptide)
chain: EKKTLIGIKL
B3: CAVIN3, Q969G5 (peptide)
chain: EALLQMESVA

Key:
Assay in all cases: holdup assay
Design in all cases: key: below the threshold = too weak to quantify, mostly under pKd 3.1 to 4
Settings in all cases: plain residues with an end cap or a label only (N-terminal biotin on a linker: ado-ado)
[1] = target: T1, PDZRN3_1, Q9UPQ7
[2] = target: T2, MPP7, Q5T2T1
[3] = target: FRMPD2_1, Q68DX3
[4] = target: SCRIB_1, Q14160
[5] = target: GRIP2_6, Q9C0E4
[6] = target: SCRIB_3, Q14160
[7] = target: Inadl_4, Q8NI35
[8] = target: T3, RHPN1, Q8TCX5
[9] = target: Inadl_3, Q8NI35
[10] = target: T4, DVL3, Q92997
[11] = target: GORASP1, Q9BQQ3
[12] = target: TJP1_2, Q07157
[13] = target: IL16_1, Q14005
[14] = target: T5, SNTB1, Q13884
[15] = target: T6, MPDZ_5, O75970
[16] = target: NHERF4_4, Q86UT5
[17] = target: T7, DLG3_3, Q92796
[18] = target: DLG2_2, Q15700
[19] = target: T8, DFNB31_1, Q9P202
[20] = target: Inadl_1, Q8NI35
[21] = target: T9, APBA3_1, O96018
[22] = target: GORASP2, Q9H8Y8
[23] = target: NHERF4_1, Q86UT5-2
[24] = target: T10, MPDZ_10, O75970
[25] = target: PDLIM1, O00151
[26] = target: T11, LRRC7, Q96NW7

Chain of NHERF4_4, Q86UT5 (Q86UT5 464-550): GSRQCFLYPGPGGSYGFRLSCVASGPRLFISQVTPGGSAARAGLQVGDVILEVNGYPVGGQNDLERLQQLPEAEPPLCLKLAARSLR
Chain of SCRIB_3, Q14160 (Q14160 999-1103): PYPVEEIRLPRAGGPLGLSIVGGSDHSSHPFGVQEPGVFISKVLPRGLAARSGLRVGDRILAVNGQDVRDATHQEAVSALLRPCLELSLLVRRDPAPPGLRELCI
Chain of Inadl_4, Q8NI35 (Q8NI35 547-651): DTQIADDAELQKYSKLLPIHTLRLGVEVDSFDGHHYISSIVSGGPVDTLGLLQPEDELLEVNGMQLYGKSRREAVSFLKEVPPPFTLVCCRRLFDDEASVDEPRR
Chain of TJP1_2, Q07157 (Q07157 181-274): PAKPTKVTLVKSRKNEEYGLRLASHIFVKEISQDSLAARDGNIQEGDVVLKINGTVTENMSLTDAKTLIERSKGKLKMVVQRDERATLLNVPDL
Chain of NHERF4_1, Q86UT5-2 (Q86UT5 other isoform, or with tags, fused parts or gaps): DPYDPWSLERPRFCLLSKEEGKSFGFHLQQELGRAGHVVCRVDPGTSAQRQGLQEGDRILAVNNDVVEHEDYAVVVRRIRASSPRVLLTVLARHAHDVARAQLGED
Chain of Inadl_1, Q8NI35 (Q8NI35 113-229): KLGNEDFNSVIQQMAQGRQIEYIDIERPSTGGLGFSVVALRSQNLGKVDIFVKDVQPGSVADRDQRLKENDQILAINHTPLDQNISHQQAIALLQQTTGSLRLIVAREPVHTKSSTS
Chain of GRIP2_6, Q9C0E4 (Q9C0E4 648-740): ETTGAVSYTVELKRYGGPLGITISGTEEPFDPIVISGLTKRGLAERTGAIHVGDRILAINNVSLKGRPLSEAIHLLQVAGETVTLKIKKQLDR
Chain of SCRIB_1, Q14160 (Q14160 718-814): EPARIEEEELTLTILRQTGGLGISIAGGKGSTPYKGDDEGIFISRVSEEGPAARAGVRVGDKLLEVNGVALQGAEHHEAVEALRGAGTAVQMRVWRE
Chain of GORASP1, Q9BQQ3 (Q9BQQ3 1-208): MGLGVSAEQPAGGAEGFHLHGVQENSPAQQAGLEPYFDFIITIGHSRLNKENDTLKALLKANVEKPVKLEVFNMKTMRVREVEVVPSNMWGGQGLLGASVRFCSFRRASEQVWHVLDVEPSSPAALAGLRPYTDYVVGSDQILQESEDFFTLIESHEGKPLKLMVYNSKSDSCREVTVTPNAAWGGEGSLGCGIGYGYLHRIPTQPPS
Chain of FRMPD2_1, Q68DX3 (Q68DX3 770-861): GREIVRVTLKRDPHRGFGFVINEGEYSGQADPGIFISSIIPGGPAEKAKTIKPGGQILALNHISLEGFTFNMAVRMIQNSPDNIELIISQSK
Chain of PDLIM1, O00151 (O00151 1-87): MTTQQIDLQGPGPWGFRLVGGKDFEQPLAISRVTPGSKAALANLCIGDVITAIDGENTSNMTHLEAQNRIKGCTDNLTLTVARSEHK
Chain of Inadl_3, Q8NI35 (Q8NI35 359-469): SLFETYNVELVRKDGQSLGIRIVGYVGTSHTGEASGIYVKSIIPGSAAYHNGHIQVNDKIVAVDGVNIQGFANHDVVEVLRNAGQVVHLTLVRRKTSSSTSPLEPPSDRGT
Chain of IL16_1, Q14005 (Q14005 210-306): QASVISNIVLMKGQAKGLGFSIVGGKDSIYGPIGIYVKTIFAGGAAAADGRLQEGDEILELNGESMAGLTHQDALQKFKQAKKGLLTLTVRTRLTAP
Chain of DLG2_2, Q15700 (Q15700 189-283): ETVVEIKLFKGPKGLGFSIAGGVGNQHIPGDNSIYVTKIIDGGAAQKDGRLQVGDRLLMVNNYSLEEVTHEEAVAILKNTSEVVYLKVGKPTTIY

| Binder | pKd [1] | pKd [2] | pKd [3] | pKd [4] | pKd [5] | pKd [6] | pKd [7] | pKd [8] | pKd [9] | pKd [10] | pKd [11] | pKd [12] | pKd [13] | pKd [14] | pKd [15] | pKd [16] | pKd [17] | pKd [18] | pKd [19] | pKd [20] | further results |
| --- | --- | --- | --- | --- | --- | --- | --- | --- | --- | --- | --- | --- | --- | --- | --- | --- | --- | --- | --- | --- | --- |
| B1 | 3.7 | below the threshold | below the threshold | 3.76 | below the threshold | 4.06 | below the threshold | 4.23 | below the threshold | below the threshold | 3.57 | 3.58 | below the threshold | 3.64 | below the threshold | 4.03 | below the threshold | below the threshold | 3.62 | below the threshold | pKd [21]: below the threshold; pKd [22]: below the threshold; pKd [23]: 3.89; pKd [24]: below the threshold; pKd [25]: 3.54; pKd [26]: 3.92 |
| B2 | below the threshold | below the threshold | 3.88 | below the threshold | below the threshold | below the threshold | below the threshold | below the threshold | below the threshold | below the threshold | below the threshold | below the threshold | below the threshold | below the threshold | below the threshold | 3.5 | below the threshold | below the threshold | below the threshold | below the threshold | pKd [21]: below the threshold; pKd [22]: below the threshold; pKd [23]: 3.81; pKd [24]: below the threshold; pKd [25]: below the threshold; pKd [26]: below the threshold |
| B3 | below the threshold | below the threshold | 3.62 | 3.56 | below the threshold | below the threshold | below the threshold | 3.69 | below the threshold | below the threshold | below the threshold | below the threshold | below the threshold | below the threshold | below the threshold | below the threshold | below the threshold | below the threshold | below the threshold | below the threshold | pKd [21]: below the threshold; pKd [22]: below the threshold; pKd [23]: 3.59; pKd [24]: below the threshold; pKd [25]: below the threshold; pKd [26]: below the threshold |
